Target: mutant pp60c-Src tyrosine kinase (SRC 531 mutant, truncated c-Src) (human) (UniProt P12931)
Test: cell-based or functional assay

K50% (competitive inhibition of enolase phosphorylation): 5 µM
Km (kinase reaction, 32P incorporation into peptide, phosphocellulose paper): 2 µM
Vmax (kinase reaction, 32P incorporation into peptide, phosphocellulose paper): 0.9 µM/mg/min
Substance: peptide Ala-Glu-Glu-Glu-Ile-Tyr-Gly-Glu-Phe-Glu-Ala-Lys-Lys-Lys-Lys

— patent US20040261142A1
